Measurements reported in patent US20150259426A1 (Novartis, published 2015).

Key:
[1] = molecular target: T1, cell-bound human DR5 (Colo205 and other human cell lines) (human, UniProt O14763 56-440); assay: cell-based or functional assay
[2] = molecular target: T1, cell-bound human DR5 (Colo205 and other …); assay: cell-based or functional assay; remark: listed apart in the source
[3] = molecular target: T2, hGITR (human, UniProt Q9Y5U5); assay: ELISA, receptor ECD from E. coli lysate on His capture plate;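 also: binding specificity screen across TNF receptor superfamily ectodomains, anti-V5 detection as expression reference, primary antibody incubation 1 h at room temperature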
T2 construct: extracellular domain, E. coli lysate captured on a His capture plate; Target named only on the sheet; the construct is not described in the text
T2 sequence (extracellular domain, looked up): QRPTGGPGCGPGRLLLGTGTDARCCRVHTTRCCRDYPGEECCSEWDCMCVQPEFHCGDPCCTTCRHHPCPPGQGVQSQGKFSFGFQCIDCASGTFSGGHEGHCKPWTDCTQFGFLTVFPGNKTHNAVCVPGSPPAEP

[4] = molecular target: T3, TNFR1 extracellular domain (TNFRSF1A, Leu34-Thr211) (UniProt P19438 34-211); assay: as above
T3 construct: range 34-211; ECD cloned into pBadThioTopo; E. coli lysate on His capture plates
T3 sequence (looked up): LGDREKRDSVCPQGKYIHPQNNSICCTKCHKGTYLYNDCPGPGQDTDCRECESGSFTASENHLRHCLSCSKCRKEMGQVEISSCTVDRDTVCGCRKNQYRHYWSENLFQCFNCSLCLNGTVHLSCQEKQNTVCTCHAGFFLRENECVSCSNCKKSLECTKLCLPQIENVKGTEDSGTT

[5] = molecular target: T4, TNFR3 extracellular domain (TNFRSF3, Pro30-Thr224) (UniProt P36941 30-224); assay: as above
T4 construct: range 30-224; ECD cloned into pBadThioTopo; E. coli lysate on His capture plates
T4 sequence (P36941 30-224 limits assumed): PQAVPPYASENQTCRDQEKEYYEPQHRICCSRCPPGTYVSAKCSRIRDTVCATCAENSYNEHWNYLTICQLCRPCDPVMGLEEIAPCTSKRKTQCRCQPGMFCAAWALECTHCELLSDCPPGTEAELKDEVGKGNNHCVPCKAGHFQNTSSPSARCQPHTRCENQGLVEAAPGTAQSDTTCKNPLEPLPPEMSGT

[6] = molecular target: T5, OX40 extracellular domain (TNFRSF4, Gly33-Gly212) (UniProt P43489 33-212); assay: as above
T5 construct: ECD cloned into pBadThioTopo; E. coli lysate on His capture plates
T5 sequence (looked up): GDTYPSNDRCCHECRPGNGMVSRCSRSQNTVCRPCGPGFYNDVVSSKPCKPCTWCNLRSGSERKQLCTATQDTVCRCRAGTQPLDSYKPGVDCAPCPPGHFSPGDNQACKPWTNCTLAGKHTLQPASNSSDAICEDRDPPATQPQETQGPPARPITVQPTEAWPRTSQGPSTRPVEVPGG

[7] = molecular target: T6, CD40 extracellular domain (TNFRSF5, Val18-Leu192) (UniProt P25942 18-192); assay: as above
T6 construct: range 18-192; ECD cloned into pBadThioTopo; E. coli lysate on His capture plates
T6 sequence (P25942 18-192 limits assumed): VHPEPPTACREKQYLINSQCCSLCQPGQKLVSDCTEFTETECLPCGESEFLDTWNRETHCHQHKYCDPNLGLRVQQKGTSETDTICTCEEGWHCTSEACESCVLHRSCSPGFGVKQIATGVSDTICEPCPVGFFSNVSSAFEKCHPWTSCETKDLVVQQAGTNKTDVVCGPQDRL

[8] = molecular target: T7, FAS extracellular domain (TNFRSF6, Ser20-Gly175) (UniProt P25445 20-175); assay: as above
T7 construct: ECD cloned into pBadThioTopo; E. coli lysate on His capture plates
T7 sequence (looked up): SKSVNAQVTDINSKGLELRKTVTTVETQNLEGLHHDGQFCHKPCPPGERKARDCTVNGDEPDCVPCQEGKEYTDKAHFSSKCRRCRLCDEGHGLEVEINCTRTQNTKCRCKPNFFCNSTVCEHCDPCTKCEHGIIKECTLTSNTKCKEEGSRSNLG

[9] = molecular target: T8, DcR3 (TNFRSF6B, Val27-Ala176) (UniProt O95407 27-176); assay: as above
T8 construct: range 27-176; ECD cloned into pBadThioTopo; E. coli lysate on His capture plates
T8 sequence (looked up): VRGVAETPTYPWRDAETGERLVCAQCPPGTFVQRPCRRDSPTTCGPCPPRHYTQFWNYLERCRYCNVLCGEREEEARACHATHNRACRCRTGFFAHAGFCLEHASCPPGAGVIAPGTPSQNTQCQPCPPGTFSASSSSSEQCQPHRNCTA

[10] = molecular target: T9, CD27 extracellular domain (TNFRSF7, Thr21-Ser187) (UniProt P26842 21-187); assay: as above
T9 construct: range 21-187; ECD cloned into pBadThioTopo; E. coli lysate on His capture plates
T9 sequence (P26842 21-187 limits assumed): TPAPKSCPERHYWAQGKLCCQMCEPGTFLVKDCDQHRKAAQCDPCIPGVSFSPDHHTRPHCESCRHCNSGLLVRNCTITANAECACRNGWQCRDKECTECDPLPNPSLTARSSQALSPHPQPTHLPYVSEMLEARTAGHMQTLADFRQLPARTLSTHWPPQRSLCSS

[11] = molecular target: T10, CD137 extracellular domain (TNFRSF9, Glu19-Ile188) (UniProt Q07011 19-188); assay: as above
T10 construct: range 19-188; ECD cloned into pBadThioTopo; E. coli lysate on His capture plates
T10 sequence (Q07011 19-188 limits assumed): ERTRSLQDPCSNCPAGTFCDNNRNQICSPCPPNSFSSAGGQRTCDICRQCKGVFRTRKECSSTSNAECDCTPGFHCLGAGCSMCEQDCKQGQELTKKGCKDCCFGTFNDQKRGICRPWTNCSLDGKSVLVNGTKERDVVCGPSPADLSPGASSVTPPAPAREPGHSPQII

[12] = molecular target: T11, DcR2 extracellular domain (TNFRSF10D, Thr57-Thr198) (UniProt Q9UBN6 57-198); assay: as above
T11 construct: range 57-198; ECD cloned into pBadThioTopo; E. coli lysate on His capture plates
T11 sequence (looked up): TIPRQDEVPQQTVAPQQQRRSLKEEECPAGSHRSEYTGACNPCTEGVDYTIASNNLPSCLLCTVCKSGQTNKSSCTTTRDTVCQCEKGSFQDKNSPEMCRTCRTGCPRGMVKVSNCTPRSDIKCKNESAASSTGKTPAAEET

[13] = molecular target: T12, OPG (TNFRSF11B, Lys17-Ile197) (UniProt O00300 17-197); assay: as above
T12 construct: range 17-197; ECD cloned into pBadThioTopo; E. coli lysate on His capture plates
T12 sequence (looked up): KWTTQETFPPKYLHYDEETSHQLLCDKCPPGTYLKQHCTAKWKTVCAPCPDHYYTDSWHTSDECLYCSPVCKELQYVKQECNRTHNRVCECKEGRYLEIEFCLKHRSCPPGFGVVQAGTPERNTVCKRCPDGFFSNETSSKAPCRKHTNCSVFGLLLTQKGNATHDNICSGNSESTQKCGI

[14] = molecular target: T13, BAFFR extracellular domain (TNFRSF13C, Met1-Gly64) (UniProt Q96RJ3 1-64); assay: as above
T13 construct: range 1-64; ECD cloned into pBadThioTopo; E. coli lysate on His capture plates
T13 sequence (Q96RJ3 1-64 limits assumed): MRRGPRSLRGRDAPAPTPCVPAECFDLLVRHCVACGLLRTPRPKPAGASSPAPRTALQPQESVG

[15] = molecular target: cynomolgus DR5-Fc fusion protein (cyno DR5 amino acids 56 to 213 fused with human IgG1 Fc) (cynomolgus; human); assay: SPR (Biacore), CM5 chip coated with cynomolgus DR5-Fc, 1 to 100 nM NB construct

Row | binding result [3] | binding result [4] | binding result [5] | binding result [6] | binding result [7] | binding result [8] | binding result [9] | Binder | IC50, cell survival, Colo205 [1] | IC50, cell survival, A549 [2] | IC50, cell survival, ARPE-19 [2] | IC50, cell survival, H226 [2] | IC50, cell survival, H2052 [2] | IC50, cell survival, H2122 [2] | IC50, cell survival, Huvec [2] | IC50, cell survival, IMR-90 [2] | IC50, cell survival, Jurkat [2] | IC50, cell survival, M30 [2] | IC50, cell survival, MiaPaCa-2 [2] | IC50, cell survival, Molt4 [2] | IC50, cell survival, Panc-1 [2] | further results
1 | no binding (tested: not stated) | no binding (tested: not stated) | no binding (tested: not stated) | no binding (tested: not stated) | no binding (tested: not stated) | no binding (tested: not stated) | no binding (tested: not stated) | 10F1 tri (trivalent anti-DR5 NB construct) (VHH, not shown: small tags and cut ends) EVQLVESGGGLVQPGGSLRLSCAASGFTFSRYWMYWVRQAPGKGLEWVSAINSGGGDTYYRDSVRGRFTISRDNFKNTLYLQMNSLKSEDTAVYYCAKAEGPPTFSLIRTMTVDPGAQGTQVTVSSGGGGSGGGGSGGGGSGGGGSGGGGSGGGGSGGGGSEVQLVESGGGLVQPGGSLRLSCAASGFTFSRYWMYWVRQAPGKGLEWVSAINSGGGDTYYRDSVRGRFTISRDNFKNTLYLQMNSLKSEDTAVYYCAKAEGPPTFSLIRTMTVDPGAQGTQVTVSSGGGGSGGGGSGGGGSGGGGSGGGGSGGGGSGGGGSEVQLVESGGGLVQPGGSLRLSCAASGFTFSRYWMYWVRQAPGKGLEWVSAINSGGGDTYYRDSVRGRFTISRDNFKNTLYLQMNSLKSEDTAVYYCAKAEGPPTFSLIRTMTVDPGAQGTQVTVSS | 40.7 pM | ≥ 20 nM | ≥ 20 nM | 20 pM | 13 pM | 3 pM | ≥ 20 nM | ≥ 20 nM | ≥ 20 nM | ≥ 20 nM | ≥ 20 nM | ≥ 20 nM | ≥ 20 nM | binding result [10]: no binding (tested: not stated); binding result [11]: no binding (tested: not stated); binding result [12]: no binding (tested: not stated); binding result [13]: no binding (tested: not stated); binding result [14]: no binding (tested: not stated); Kd [15]: < 0.6 nM
2 | no binding (tested: not stated) | no binding (tested: not stated) | no binding (tested: not stated) | no binding (tested: not stated) | no binding (tested: not stated) | no binding (tested: not stated) | no binding (tested: not stated) | 4E6 tri (trivalent anti-DR5 NB construct) (VHH, three VHH units in one chain joined by GlySer linkers; not shown: CMYC-HIS6 tag) EVQLVESGGGSVQAGDSLRLSCAASGRTFGSIRVGWFRQTPGKEREFVAAINRNDGTTYYADSVKGRFTISRDNAKNTVYMQMASLKPEDTAVYYCAAGLQYNRSADRVPVGAVYWGQGTQVTVSSGGGGSGGGGSGGGGSGGGGSGGGGSGGGGSGGGGSEVQLVESGGGSVQAGDSLRLSCAASGRTFGSIRVGWFRQTPGKEREFVAAINRNDGTTYYADSVKGRFTISRDNAKNTVYMQMASLKPEDTAVYYCAAGLQYNRSADRVPVGAVYWGQGTQVTVSSGGGGSGGGGSGGGGSGGGGSGGGGSGGGGSGGGGSEVQLVESGGGSVQAGDSLRLSCAASGRTFGSIRVGWFRQTPGKEREFVAAINRNDGTTYYADSVKGRFTISRDNAKNTVYMQMASLKPEDTAVYYCAAGLQYNRSADRVPVGAVYWGQGTQVTVSS | 37.9 pM | ≥ 20 nM | ≥ 20 nM | 20 pM | 6 pM | 2 pM | ≥ 20 nM | ≥ 20 nM | ≥ 20 nM | ≥ 20 nM | 0.023 nM | ≥ 20 nM | ≥ 20 nM | binding result [10]: no binding (tested: not stated); binding result [11]: no binding (tested: not stated); binding result [12]: no binding (tested: not stated); binding result [13]: no binding (tested: not stated); binding result [14]: no binding (tested: not stated); Kd [15]: < 0.09 nM
